Data: patent publication US20220307001

Columns and labels:
[1] = tested on: xCas9 3.7 nuclease (evolved SpCas9) (Streptococcus pyogenes); test: cell_activity; details: GUIDE-seq HEK293T
[2] = tested on: xCas9(3.7)-BE3 (Streptococcus pyogenes); test: cell_activity; details: HEK293T; PAM GAA; SD 0.75; >50-fold over SpCas9-BE3

EMX1 site sgRNA spacer ; EMX1 site target, GGG PAM
activity (on-target reads) ([1]; PAM GGG, zero off-target reads): 6870

FANCF GAA site sgRNA spacer ; FANCF GAA PAM target
activity (on-target reads) ([1]; PAM GAA, no off-target reads): 3630
activity (% C-to-T editing) [2]: 10

FANCF CGT site sgRNA spacer ; FANCF CGT PAM target
activity (on-target reads) ([1]; PAM CGT, no off-target reads): 3060
